From CN105348390A (BEIJING WISDOMAB BOITECHNOLOGY CO LTD, dated 2016) come the findings set out here.

Numbering of substitutions follows the chain as printed.

The chains are these.
B1: S2B8 (scFv)
scFv: QVQLVESGGGLVKPGGSLRLSCAVSGFTFSRHSMNWVRQAPGKGLEWVSSISSGSSNIYYADSVKGRFTISRDNAKNSLYLQMNSLRDEDTAVYYCARGGLGPEYLQHWGQGTLVTVSSGGGGSGGGGSGGGGSSSELTQPASVSGSPGQSITISCTGTSSDIGDNNFVSWYQQYPGKAPKLMIYDVSNRPSGVSNRFSGSKSGNTASLTISGLQAEDEADYYCSSYTSSSTLVFGGGTKVTVLG
notes: also called 克隆S2B8
B2: S2F5 (scFv)
scFv: QVQLVQSGAEVKKPGSSVKVSCKASGGTFTGYSIHWVRQAPGQGLEWMGWINPISGSANYAQKFQGRVTITADKSTSTAYMELSSLRSEDTAVYYCARTQNNTGYRGTDYWGQGTLVTVSSGGGGSGGGGSGGGSDIQMTQSPSSLSASVGDRVTITCRASQSVSSYLNWYQQKPGKAPKLLIYGASTRPSGVPSRFSGSGSGTDFTLTISSLQPEDFATYYCQQHADTPTTFGQGTKVEIK
notes: also called 克隆S2F5
B3: S2G1 (scFv)
scFv: QMQLVQSGAEVKKPGSSVKVSCKTSGGTFGSSAIHWVRQAPRQGLEWMGRINPVLGTTNYTQKFHDRLTITADESTTTAYMELRSLRSDDTAVYYCAREGIPMIWGQGTMVTVSSGGGGSGGGGSGGGGSDIQMTQSPSSLSASVGDRVTITCRASQGIHNWLNWYQQKPGKAPKLLIYAASNRASGVPSRFSGSGSGTDFTLTISSLQPEDFATYYCQQSGKQPVTFGQGTKVEIK
notes: also called 克隆S2G1
B4: S3A12 (scFv)
scFv: QVQLVQSGAEVKKPGASVKVSCKASGYAIYNYGISWVRQAPGQGLEWMGWVSYFGGSTTYAQKLQGRGTMTTDPSTSTAYMELRSLRSDDTAVYYCAKGYGMEIWGQGTTVSSGGGGSGGGGSGGGGSDIQMTQSPSSLSASVGDRVTITCRASQNVNNWLDWYQQKPGKAPKLLIYAASTRASGVPSRFSGSGSGTDFTLTISSLQPEDFATYYCQQDRDVPVTFGQGTKVEIK
notes: also called 克隆S3A12
B5: H4H4-IgG4 (antibody, V domains shown)
VH: QVQLVQSGAEVKKPGASVKVSCKASGYAIYNYGISWVRQAPGQGLEWMGWVSFYNGNTNYAQKLQGRGTMTTDPSTSTAYMELRSLRSDDTAVYYCARGYVMDIWGQGTTVTVSS
VL: DIQMTQSPSSLSASVGDRVTITCRASQSINNWLDWYQQKPGKAPKLLIYAASTRPSGVPSRFSGSGSGTDFTLTISSLQPEDFATYYCQQDQDIPPTFGQGTKVEIKR
B6: H7B12-IgG4 (antibody, V domains shown)
VH: B5 VH with A28T, I29L, Y30N
VL: B5 VL
B7: H8A7-IgG4 (antibody, V domains shown)
VH: B5 VH with I104F
VL: B5 VL
B8: H8F4-IgG4 (antibody, V domains shown)
VH: B5 VH with I29L
VL: B5 VL
B9: Alirocumab (antibody, V domains shown)
VH: EVQLVESGGGLVQPGGSLRLSCAASGFTFNNYAMNWVRQAPGKGLDWVSTISGSGGTTNYADSVKGRFIISRDSSKHTLYLQMNSLRAEDTAVYYCAKDSNWGNFDLWGRGTLVTVSS
VL: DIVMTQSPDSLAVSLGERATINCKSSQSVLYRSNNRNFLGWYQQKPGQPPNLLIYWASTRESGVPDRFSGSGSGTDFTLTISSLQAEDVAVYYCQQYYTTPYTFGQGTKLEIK

T1 sequence (Q8NBP7 other isoform, or with tags, fused parts or gaps): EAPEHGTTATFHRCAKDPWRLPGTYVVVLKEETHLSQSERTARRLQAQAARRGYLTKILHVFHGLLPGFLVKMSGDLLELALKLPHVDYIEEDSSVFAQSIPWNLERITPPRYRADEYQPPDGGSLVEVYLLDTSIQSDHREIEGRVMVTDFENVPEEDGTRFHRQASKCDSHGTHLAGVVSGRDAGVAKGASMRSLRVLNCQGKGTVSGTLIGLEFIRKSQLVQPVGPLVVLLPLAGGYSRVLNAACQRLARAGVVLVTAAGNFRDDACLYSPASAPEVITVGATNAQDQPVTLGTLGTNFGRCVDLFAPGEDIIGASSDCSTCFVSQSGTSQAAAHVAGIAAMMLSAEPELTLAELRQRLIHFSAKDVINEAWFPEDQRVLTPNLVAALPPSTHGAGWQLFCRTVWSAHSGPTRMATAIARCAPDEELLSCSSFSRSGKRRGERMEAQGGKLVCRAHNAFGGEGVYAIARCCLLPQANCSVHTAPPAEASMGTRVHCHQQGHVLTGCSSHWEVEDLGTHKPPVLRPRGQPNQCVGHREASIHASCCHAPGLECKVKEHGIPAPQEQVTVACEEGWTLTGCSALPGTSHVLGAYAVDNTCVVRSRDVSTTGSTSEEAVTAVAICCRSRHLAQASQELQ

The first test has as its target T1, 重组huPCSK9-his (人PCSK9, C端His-tag) (human, UniProt Q8NBP7 54-692).
T1 construct: Expressed in HEK293 cells; not shown: C-terminal His-tag
Briefly: solid-phase panning of scFv phage library on huPCSK9-his.
For the molecule B1, the binding result is recorded as “binds”.
The same measure, in the same setting: the value for B2 was “binds”.
Still for that read-out and setting: under B3 stands “binds”; under B4, “binds”.

The target in the next test is T1, 重组huPCSK9-his (人PCSK9, C端His-tag). Briefly: SPR, Biacore 3000, antibody captured by anti-human Fc on CM5, huPCSK9 as analyte. In general terms: SPR reads the build-up and loss of mass on a sensor chip optically.
As for B5, the affinity, expressed as Kd, was 0.0659 nM; the koff (in general, a measure of how fast the partners let go of each other) was 4.7e-05 s⁻¹; the on-rate constant (kon) (usually the rate constant with which the complex forms) came out at 714000 M⁻¹ s⁻¹.
The matching figures for B6: 0.0323 nM, 3.26e-05 s⁻¹ and 1.01e+06 M⁻¹ s⁻¹.
For B7, in that order: 0.0648 nM, 4.83e-05 s⁻¹ and 746000 M⁻¹ s⁻¹.
For B8, in that order: 0.0675 nM, 4.48e-05 s⁻¹ and 663000 M⁻¹ s⁻¹.
With B9, the Kd – broadly, the free concentration of one partner at which half of the binding sites on the other are occupied at equilibrium, for simple one-to-one binding – worked out at 0.0677 nM; the koff turned out to be 0.000154 s⁻¹; the kon turned out to be 2.27e+06 M⁻¹ s⁻¹.
